Paper PMC4072592

Assays:
[1] = biological target: N-PYM-GFP (S2 cells) (Drosophila) (UniProt P82804); test: co-IP + cross-linking; as the native GFP-Trap IP from S2 cell extracts, but extracts cross-linked with 1 mM DSP for 1 h at 4°C before the IP; blots quantified by densitometry
[2] = biological target: ΔC-PYM-GFP (S2 cells) (Drosophila); test: as above
[3] = biological target: N-PYM-GFP (S2 cells) (Drosophila) (UniProt P82804); test: co-IP; GFP-Trap beads on cytoplasmic extracts of S2 cells expressing GFP or GFP-tagged FL-, ΔC- or N-PYM, native conditions; blots of Mago and Y14 quantified by densitometry, coIP efficiency as percent of the GFP enrichment

Y14-Mago heterodimer, endogenous in S2 cells, sequence (Q9V535 whole entry): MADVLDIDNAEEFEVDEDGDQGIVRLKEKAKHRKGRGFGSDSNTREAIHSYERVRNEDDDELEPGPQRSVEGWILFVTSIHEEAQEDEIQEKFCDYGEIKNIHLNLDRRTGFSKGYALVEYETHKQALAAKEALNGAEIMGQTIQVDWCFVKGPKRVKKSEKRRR
Y14-Mago heterodimer, endogenous in S2 cells, sequence (P49028 whole entry): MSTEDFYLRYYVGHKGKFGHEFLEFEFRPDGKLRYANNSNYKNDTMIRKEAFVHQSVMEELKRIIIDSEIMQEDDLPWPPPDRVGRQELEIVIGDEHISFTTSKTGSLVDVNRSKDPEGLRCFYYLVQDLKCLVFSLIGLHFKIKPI
ΔC-PYM-GFP (S2 cells) (Drosophila), sequence (P82804 whole entry, stated change not applied): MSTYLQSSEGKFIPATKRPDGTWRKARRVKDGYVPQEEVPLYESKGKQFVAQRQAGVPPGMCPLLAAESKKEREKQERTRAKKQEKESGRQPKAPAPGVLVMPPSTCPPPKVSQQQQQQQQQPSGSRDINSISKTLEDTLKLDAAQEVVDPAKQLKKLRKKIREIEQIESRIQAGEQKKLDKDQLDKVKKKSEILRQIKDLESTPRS
N-PYM-GFP (S2 cells) (Drosophila), sequence (P82804 whole entry): as the sequence (P82804 whole entry, stated change not applied) above

Substance: Y14-Mago heterodimer, endogenous in S2 cells (from UniProt Q9V535 1-165; P49028 1-147) (complex)
- coIP efficiency of Mago (percent of the GFP enrichment), DSP cross-linked [1]: 84.9%
- coIP efficiency of Mago (percent of the GFP enrichment), DSP cross-linked [2]: 98.9%
- fold increase of binding upon DSP treatment against native [2]: 3.6 fold
- coIP efficiency of Mago (percent of the GFP enrichment), native [3]: 0.92%
